We go through five molecules from paper doi:10.1101/257543 (bioRxiv, 2018).

Experiment in all cases: ITC
For orientation: In ITC the heat of successive injections is recorded.

Assay [1] has as its target T1, SERK3^D122N LRR ectodomain (elg) (A. thaliana, UniProt Q94F62 26-220, D122N).
T1 sequence (looked up): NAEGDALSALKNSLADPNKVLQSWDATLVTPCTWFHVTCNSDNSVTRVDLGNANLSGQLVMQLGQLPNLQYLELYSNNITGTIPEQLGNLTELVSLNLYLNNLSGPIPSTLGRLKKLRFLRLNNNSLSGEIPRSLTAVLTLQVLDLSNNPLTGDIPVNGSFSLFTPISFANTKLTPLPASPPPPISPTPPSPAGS

Assay [2] addresses T2, SERK3 LRR ectodomain (SERK3^1-220), wild type (A. thaliana, UniProt Q94F62 26-220).
T2 sequence (looked up): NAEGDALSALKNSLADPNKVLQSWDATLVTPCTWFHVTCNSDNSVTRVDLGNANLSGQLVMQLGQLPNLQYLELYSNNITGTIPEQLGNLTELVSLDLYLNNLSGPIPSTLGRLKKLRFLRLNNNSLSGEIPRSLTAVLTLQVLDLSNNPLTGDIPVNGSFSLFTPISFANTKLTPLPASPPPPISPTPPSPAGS

The target of assay [3] is T3, SERK3^F60A LRR ectodomain (A. thaliana, UniProt Q94F62 26-220, F60A).
T3 sequence (looked up): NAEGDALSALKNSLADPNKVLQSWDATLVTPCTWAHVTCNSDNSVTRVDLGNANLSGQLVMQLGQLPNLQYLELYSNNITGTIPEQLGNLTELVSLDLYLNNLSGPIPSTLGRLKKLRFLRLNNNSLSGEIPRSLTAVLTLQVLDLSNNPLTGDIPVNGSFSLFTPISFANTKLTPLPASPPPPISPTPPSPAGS

Assay [4] concerns the target different SERK ectodomains.

The term Kd denotes the concentration at which binding is half-saturated. A high value points to lower affinity. What is called stoichiometry N is a count of units in the complex or per binding partner.

B1: BIR2 LRR ectodomain (BIR2^1-222), wild type (domain or fragment, A. thaliana, UniProt Q9LSI9 29-222, looked up)
chain: ADEDDIRCLRGLKASLTDPQNALKSWNFDNTTLGFLCNFVGVSCWNNQENRVINLELRDMGLSGKIPDSLQYCASLQKLDLSSNRLSGNIPTELCNWLPFLVSLDLSNNELNGEIPPDLAKCSFVNSLVLSDNRLSGQIPVQFSALGRLGRFSVANNDLSGRIPVFFSSPSYSSDDFSGNKGLCGRPLSSSCGG
modifications: N-glycan at Asn58 (in the crystal structure)
As to B1, the “fold reduction of binding against wild-type SERK3” value in assay [1] is around 8 fold. For the same molecule, the binding result in assay [2] and in assay [3] was “binds” in each case. In assay [4], this molecule registered a Kd of 1000 to 3000 nM.

B2: BIR2^E84R LRR ectodomain (domain or fragment, A. thaliana, UniProt Q9LSI9 29-222, looked up)
chain: ADEDDIRCLRGLKASLTDPQNALKSWNFDNTTLGFLCNFVGVSCWNNQENRVINLRLRDMGLSGKIPDSLQYCASLQKLDLSSNRLSGNIPTELCNWLPFLVSLDLSNNELNGEIPPDLAKCSFVNSLVLSDNRLSGQIPVQFSALGRLGRFSVANNDLSGRIPVFFSSPSYSSDDFSGNKGLCGRPLSSSCGG
Regarding B2, the binding result in assay [2] is given as “binds”.

B3: BIR2^V157D LRR ectodomain (domain or fragment, A. thaliana, UniProt Q9LSI9 29-222, looked up)
chain: ADEDDIRCLRGLKASLTDPQNALKSWNFDNTTLGFLCNFVGVSCWNNQENRVINLELRDMGLSGKIPDSLQYCASLQKLDLSSNRLSGNIPTELCNWLPFLVSLDLSNNELNGEIPPDLAKCSFVNSLDLSDNRLSGQIPVQFSALGRLGRFSVANNDLSGRIPVFFSSPSYSSDDFSGNKGLCGRPLSSSCGG
In the case of B3, the binding result in assay [2] was “binds”.

B4: BIR2^W73A LRR ectodomain (domain or fragment, A. thaliana, UniProt Q9LSI9 29-222, looked up)
chain: ADEDDIRCLRGLKASLTDPQNALKSWNFDNTTLGFLCNFVGVSCANNQENRVINLELRDMGLSGKIPDSLQYCASLQKLDLSSNRLSGNIPTELCNWLPFLVSLDLSNNELNGEIPPDLAKCSFVNSLVLSDNRLSGQIPVQFSALGRLGRFSVANNDLSGRIPVFFSSPSYSSDDFSGNKGLCGRPLSSSCGG
As for B4, the binding result in assay [2] is recorded as “binds”.

B5: BIR3 LRR ectodomain (BIR3^1-213) (domain or fragment, A. thaliana, UniProt O04567 25-213, looked up)
chain: EDDVLCLQGLKNSLIDPSSRLSSWSFPNSSASSICKLTGVSCWNEKENRIISLQLQSMQLAGEIPESLKLCRSLQSLDLSGNDLSGSIPSQICSWLPYLVTLDLSGNKLGGSIPTQIVECKFLNALILSDNKLSGSIPSQLSRLDRLRRLSLAGNDLSGTIPSELARFGGDDFSGNNGLCGKPLSRCGA
modifications: N-glycosylated (fully glycosylated in the crystal; sites not given)
As to B5, in assay [1], the “fold reduction of binding against wild-type SERK3” value was around 4 fold. Moreover, the Kd in assay [2] is around 1000 nM; in assay [4], 1000 to 3000 nM. Further, the “stoichiometry N” value in assay [2] was 1.
